Measurements published in paper PMC7775534.

Molecular target: T1, DR_1836 (DrSRP protein, Ffh homolog) (Deinococcus radiodurans R1 (ATCC 13939)) (UniProt Q9RTC9)
T1 sequence: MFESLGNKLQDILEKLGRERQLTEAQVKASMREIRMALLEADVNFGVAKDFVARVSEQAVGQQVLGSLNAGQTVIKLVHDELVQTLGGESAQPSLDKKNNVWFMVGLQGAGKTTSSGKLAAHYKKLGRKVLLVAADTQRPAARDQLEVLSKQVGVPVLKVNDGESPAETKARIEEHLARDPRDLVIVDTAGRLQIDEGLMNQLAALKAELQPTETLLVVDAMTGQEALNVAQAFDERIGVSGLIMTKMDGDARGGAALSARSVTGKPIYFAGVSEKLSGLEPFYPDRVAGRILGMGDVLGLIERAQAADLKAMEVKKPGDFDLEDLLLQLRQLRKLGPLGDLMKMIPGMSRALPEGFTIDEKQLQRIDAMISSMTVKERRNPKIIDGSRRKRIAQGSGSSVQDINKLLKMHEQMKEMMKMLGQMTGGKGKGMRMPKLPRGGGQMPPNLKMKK
Test: EMSA
Conditions: 20 mM Tris-HCl pH 8.0, 1 mM MgCl2, 20 mM KCl, 10 mM Na phosphate pH 8.0, 10% glycerol, 0.2 mM DTT, 37 C 1 h; 4% native PAGE, 0.5x TBE, 4 C

For “GGGAGACGCCAGACGUAGGGCAGUACCCCCUUCUCUGCACAGCGCCCGCAACUGUGCUACCAUCCUUCCCGCAUUGCUGGUGCAGCGCAGCGCGGACGCCCGAACCUGGUCAGAGCCGGAAGGCAGCAGCCAUAAGGGAUGCUUUGCGGGUGCCGUUGCCUUCCGGCAAUGCUUUUUUCGUCUCUCCUCGGGGUCGCUUACGGGCGGCCCUGUUUUGUUGUGCUUAGAGCAAUUGACAGAA [Qpr6 (SRP RNA)]”, the binding was “binds”.
